Data taken from patent US7026125, “Heterodimers of retinoid X receptors (RXRS) and other steroid hormone receptors” (Ligand Pharmaceuticals).

Tests used:
RARα/RXRα heterodimer = RARα/RXRα heterodimer (Homo sapiens, UniProt P10276;P19793 P10276:1-462,P19793:1-462); assay: EMSA; conditions: label: 32P
Method: (§1) (a) In vitro synthesized TRα, TRβ, RARα, RARβ, RARγ and TRα2 receptor proteins were preincubated either with (+) or without (−) equal amount of in vitro synthesized RXRα protein at room temperature for 10 minutes. Following this preincubation, the reaction mixtures were incubated with ^32p-labelled palindromic TRE (for 1 sequence see FIG. 2a) and analyzed by gel retardation assay as described in Experimental Procedures. […] As a control, equal amounts of TRα and RARα proteins were also mixed and incubated with labelled TRE.
(§2) In vitro translated receptor protein (1 to 5 μl depending on the translation efficiency) was incubated with the ^32P-labeled oligonucleotides in a 20-μl reaction mixture containing 10 mM hepes buffer, pH 7.9, 50 mM KCl, 1 mM DTT, 2.5 mM MgCl, 10% glycerol, and 1 μg of poly(dI-dC) at 25° C. for 20 minutes. In general, relative low receptor concentration was used to obtain the clear effect of heterodimer formation. The reaction mixture was then loaded on a 5% nondenaturing ployacrylamide gel containing 0.5×TBE (1×TBE=0.089 M Tris-borate, 0.089 M boric acid, and 0.002 M EDTA). To analyze the effect of RXRα or the nuclear proteins on receptor DNA binding activity, RXRα or the cell extracts were preincubated with receptor protein at room temperature for 10 minutes before performing the DNA binding assay. When antibody was used, 1 μl of the antiserum was incubated with the specific translation products at room temperature for 45 minutes before performing the experiments described above.

RARβ/RXRα heterodimer = RARβ/RXRα heterodimer (UniProt P10826-2;P19793 P10826-2:1-448,P19793:1-462); assay: EMSA; conditions: label: 32P
Chain of RARβ/RXRα heterodimer (P10826 other isoform, or with tags, fused parts or gaps, chain 1 of 2): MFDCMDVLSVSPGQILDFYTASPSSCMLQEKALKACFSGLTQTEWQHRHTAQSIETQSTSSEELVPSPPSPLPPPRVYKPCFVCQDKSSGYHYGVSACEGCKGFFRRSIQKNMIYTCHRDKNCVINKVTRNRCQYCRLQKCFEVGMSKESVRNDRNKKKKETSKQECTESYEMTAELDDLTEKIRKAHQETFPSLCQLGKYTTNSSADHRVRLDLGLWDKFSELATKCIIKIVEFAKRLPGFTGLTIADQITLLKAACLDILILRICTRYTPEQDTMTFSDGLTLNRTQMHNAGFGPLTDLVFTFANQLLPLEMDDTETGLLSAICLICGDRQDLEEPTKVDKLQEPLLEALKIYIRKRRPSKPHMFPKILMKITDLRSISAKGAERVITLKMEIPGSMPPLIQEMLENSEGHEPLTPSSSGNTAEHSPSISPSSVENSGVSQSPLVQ
Chain of RARβ/RXRα heterodimer (P19793 whole entry, chain 2 of 2): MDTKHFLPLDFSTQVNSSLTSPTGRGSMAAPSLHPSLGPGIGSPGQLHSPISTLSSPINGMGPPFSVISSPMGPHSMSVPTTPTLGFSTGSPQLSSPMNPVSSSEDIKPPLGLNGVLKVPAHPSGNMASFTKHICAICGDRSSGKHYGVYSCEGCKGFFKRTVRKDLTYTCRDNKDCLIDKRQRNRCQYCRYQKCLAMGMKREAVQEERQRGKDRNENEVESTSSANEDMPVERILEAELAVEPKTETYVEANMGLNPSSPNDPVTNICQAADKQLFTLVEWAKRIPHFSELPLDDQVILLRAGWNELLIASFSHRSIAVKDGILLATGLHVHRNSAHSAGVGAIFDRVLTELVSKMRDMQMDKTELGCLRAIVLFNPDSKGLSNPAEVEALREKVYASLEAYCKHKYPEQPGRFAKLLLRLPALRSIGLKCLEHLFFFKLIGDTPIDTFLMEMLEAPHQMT
Method: as §1, §2

TRβ = target: T1, TRβ (UniProt P10828 P10828:1-461); assay: EMSA; conditions: label: 32P
T1 sequence: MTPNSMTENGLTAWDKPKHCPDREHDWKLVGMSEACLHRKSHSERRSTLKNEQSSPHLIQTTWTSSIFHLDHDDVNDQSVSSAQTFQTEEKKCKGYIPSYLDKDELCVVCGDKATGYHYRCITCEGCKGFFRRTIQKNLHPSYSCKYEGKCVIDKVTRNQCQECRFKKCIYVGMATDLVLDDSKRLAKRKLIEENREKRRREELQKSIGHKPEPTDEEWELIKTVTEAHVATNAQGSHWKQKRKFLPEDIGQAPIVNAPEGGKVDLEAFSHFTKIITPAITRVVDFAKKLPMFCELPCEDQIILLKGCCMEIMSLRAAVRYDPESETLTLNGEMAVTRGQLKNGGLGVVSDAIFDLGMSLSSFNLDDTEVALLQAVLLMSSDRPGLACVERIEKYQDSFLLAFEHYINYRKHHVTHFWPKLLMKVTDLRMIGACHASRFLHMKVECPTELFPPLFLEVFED
Method: as §1, §2

RARγ/RXRα heterodimer = RARγ/RXRα heterodimer (UniProt P13631;P19793 P13631:1-454,P19793:1-462); assay: EMSA; conditions: label: 32P
Chain of RARγ/RXRα heterodimer (P13631 whole entry, chain 1 of 2): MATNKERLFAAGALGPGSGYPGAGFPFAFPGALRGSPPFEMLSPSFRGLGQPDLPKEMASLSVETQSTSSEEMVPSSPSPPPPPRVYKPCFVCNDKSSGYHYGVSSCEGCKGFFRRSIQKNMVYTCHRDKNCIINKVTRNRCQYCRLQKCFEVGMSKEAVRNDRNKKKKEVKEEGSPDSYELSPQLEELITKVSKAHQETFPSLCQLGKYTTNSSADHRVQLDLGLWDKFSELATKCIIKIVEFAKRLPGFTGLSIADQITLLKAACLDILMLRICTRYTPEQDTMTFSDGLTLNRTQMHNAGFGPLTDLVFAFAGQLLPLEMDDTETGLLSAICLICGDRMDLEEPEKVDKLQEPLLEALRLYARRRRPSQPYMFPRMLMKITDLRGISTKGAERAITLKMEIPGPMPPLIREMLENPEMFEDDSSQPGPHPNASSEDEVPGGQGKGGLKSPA
Chain of RARγ/RXRα heterodimer (P19793 whole entry, chain 2 of 2): as the sequence (P19793 whole entry, chain 2 of 2) above
Method: as §1, §2

TRαm3 = target: T2, TRαm3 (UniProt P10827-2 P10827-2:1-167, C-terminal deletion of 243 aa); assay: EMSA; several complexes; conditions: label: 32P
T2 sequence: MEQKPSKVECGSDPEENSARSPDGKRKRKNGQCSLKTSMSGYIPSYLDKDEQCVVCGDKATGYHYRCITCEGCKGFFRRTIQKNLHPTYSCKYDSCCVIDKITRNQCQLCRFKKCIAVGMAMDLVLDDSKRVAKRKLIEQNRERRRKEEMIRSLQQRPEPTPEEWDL
Method: as §2

TRαm2 = target: T3, TRαm2 (UniProt P10827-2 P10827-2:1-213, C-terminal deletion of 197 aa); assay: EMSA; several complexes; conditions: label: 32P
T3 sequence: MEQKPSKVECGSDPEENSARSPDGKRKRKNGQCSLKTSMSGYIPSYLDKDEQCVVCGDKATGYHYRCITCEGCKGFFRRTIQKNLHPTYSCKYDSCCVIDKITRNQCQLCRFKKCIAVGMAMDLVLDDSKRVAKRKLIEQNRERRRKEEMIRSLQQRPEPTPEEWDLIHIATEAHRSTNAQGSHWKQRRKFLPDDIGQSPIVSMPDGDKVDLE
Method: as §2

TRβ/RXRα heterodimer = TRβ/RXRα heterodimer (UniProt P10828;P19793 P10828:1-461,P19793:1-462); assay: EMSA; upshifted complex; conditions: label: 32P
Chain of TRβ/RXRα heterodimer (P19793 whole entry, chain 2 of 2, one chain of several): as the sequence (P19793 whole entry, chain 2 of 2) above
Method: as §1
as §2, with “When antibody was used, 1 μl of the antiserum was incubated with the specific translation products at room temperature for 45 minutes before performing the experiments described above.” left out

RARγ/RXRαm4 = RARγ/RXRαm4 (UniProt P13631;P19793 P13631:1-454,P19793:61-462, RXRα N-terminal deletion of 61 aa); assay: EMSA; faster migrating than RXRαm3 complex; conditions: label: 32P
Chain of RARγ/RXRαm4 (P13631 whole entry, stated change not applied, chain 1 of 2): as the sequence (P13631 whole entry, chain 1 of 2) above
Chain of RARγ/RXRαm4 (P19793 62-462, stated change not applied, chain 2 of 2): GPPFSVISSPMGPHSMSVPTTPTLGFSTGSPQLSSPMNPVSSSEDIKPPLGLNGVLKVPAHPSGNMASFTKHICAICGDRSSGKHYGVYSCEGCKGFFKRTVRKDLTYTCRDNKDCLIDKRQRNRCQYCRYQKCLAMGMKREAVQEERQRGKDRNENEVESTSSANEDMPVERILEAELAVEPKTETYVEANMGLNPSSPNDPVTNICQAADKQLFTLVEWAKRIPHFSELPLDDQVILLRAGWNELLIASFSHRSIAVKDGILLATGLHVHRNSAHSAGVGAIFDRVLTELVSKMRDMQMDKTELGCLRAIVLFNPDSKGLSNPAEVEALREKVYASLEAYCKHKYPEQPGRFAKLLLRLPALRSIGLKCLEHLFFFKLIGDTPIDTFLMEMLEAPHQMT
Method: as §2

TRαm1/RXRα = TRαm1/RXRα (UniProt P10827-2;P19793 P10827-2:1-402,P19793:1-462, TRα C-terminal deletion of 8 aa); assay: EMSA; interaction unaffected; conditions: label: 32P
Chain of TRαm1/RXRα (P19793 whole entry, stated change not applied, one chain of several): as the sequence (P19793 whole entry, chain 2 of 2) above
Method: as §2

TRα/RXRα heterodimer = TRα/RXRα heterodimer (UniProt P10827-2;P19793 P10827-2:1-410,P19793:1-462); assay: EMSA; at least an order of magnitude more effective than either alone; T3 or RA no clear effect; conditions: label: 32P
Chain of TRα/RXRα heterodimer (P19793 whole entry, one chain of several): as the sequence (P19793 whole entry, chain 2 of 2) above
Method: as §1
as §2, with “When antibody was used, 1 μl of the antiserum was incubated with the specific translation products at room temperature for 45 minutes before performing the experiments described above.” left out

[1] = target: Flag-TRα/RXRα heterodimer (UniProt P10827-2;P19793 P10827-2:1-410,P19793:1-462); assay: EMSA; inhibited by anti-Flag; conditions: tags: N-terminal Flag on TRα; label: 32P
Chain of Flag-TRα/RXRα heterodimer (P19793 whole entry, one chain of several): as the sequence (P19793 whole entry, chain 2 of 2) above
Method: (b) Effect of anti-Flag-TRα antibody on binding of the slow migrating complex. In vitro synthesized Flag-TRα (F-TRα) protein was incubated with in vitro synthesized RXRα protein in the presence or absence of anti-Flag antibody. The effect of antibody on DNA binding of the slow migrating complex was analyzed as described in FIG. 2a. For control, the receptor mixture was also incubated with preimmune serum (NI). The effect of anti-Flag antibody on DNA binding of Flag-RXRα, RXRα, Flag-TRα, and TRα was also analyzed. For comparison, anti-Flag antibody/Flag-RXRα-TRα interaction was run on the same gel (lanes 7–10).
In vitro translated receptor protein (1 to 5 μl depending on the translation efficiency) was incubated with the ^32P-labeled oligonucleotides in a 20-μl reaction mixture containing 10 mM hepes buffer, pH 7.9, 50 mM KCl, 1 mM DTT, 2.5 mM MgCl, 10% glycerol, and 1 μg of poly(dI-dC) at 25° C. for 20 minutes. In general, relative low receptor concentration was used to obtain the clear effect of heterodimer formation. The reaction mixture was then loaded on a 5% nondenaturing ployacrylamide gel containing 0.5×TBE (1×TBE=0.089 M Tris-borate, 0.089 M boric acid, and 0.002 M EDTA). […]

Measured: binding result

Chain of RARα/RXRα heterodimer (P10276 whole entry, chain 1 of 2): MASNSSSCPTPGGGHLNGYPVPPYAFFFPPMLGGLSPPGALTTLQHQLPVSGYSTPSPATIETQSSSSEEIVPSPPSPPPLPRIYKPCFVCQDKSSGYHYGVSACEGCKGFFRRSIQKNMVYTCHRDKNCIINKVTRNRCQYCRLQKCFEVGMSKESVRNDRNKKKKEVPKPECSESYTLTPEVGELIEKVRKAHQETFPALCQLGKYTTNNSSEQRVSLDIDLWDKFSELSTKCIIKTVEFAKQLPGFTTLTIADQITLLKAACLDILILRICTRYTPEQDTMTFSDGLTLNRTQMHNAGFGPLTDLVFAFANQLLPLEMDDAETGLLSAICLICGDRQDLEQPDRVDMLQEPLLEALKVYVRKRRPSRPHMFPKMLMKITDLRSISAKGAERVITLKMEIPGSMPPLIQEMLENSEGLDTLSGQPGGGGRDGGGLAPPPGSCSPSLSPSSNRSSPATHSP
Chain of RARα/RXRα heterodimer (P19793 whole entry, chain 2 of 2): as the sequence (P19793 whole entry, chain 2 of 2) above

B1: palindromic TRE (dsDNA)
DNA 1: GATCTCAGGTCATGACCTGAGATC
DNA 2: GATCTCAGGTCATGACCTGAGATC
binds: all assays above
